Source: patent US7541141B2, “Method of using estrogen-related receptor alpha (ERRα) status to determine prognosis, treatment strategy and predisposition to breast cancer, and method of using ERRα as a therapeutic target for the treatment of breast cancer” (Wisconsin Alumni Research Foundation, priority 1997, dated 2009)

Key:
[1] = target: ERRγ (Homo sapiens, UniProt P62508); conditions: cell-based assays; cited from earlier work
[2] = system: ERE-dependent transcription in HeLa cells; assay: p3xERE-TK-luc luciferase reporter, transient transfection; type: cell-based, human; conditions: whole FBS
Experimental: Transient Transfections and Luciferase Assays: To assess the role ERRα plays in regulating transcription of an ERE-containing promoter, MCF-7 or HeLa cells grown in 12-well tissue culture plates were co-transfected in parallel with 0.5 μg of pTK-luc versus p3xERE-TK-luc along with the indicated amounts of the empty cloning vector pcDNA3.1, the ERRα1 expression plasmid pcDNA3.1-hERRα1, or mutant variants thereof. Transfections were performed with the aid of the TransIT LT1 transfection reagent (PanVera, Madison, Wis.) as previously described (35). To examine the effects of ER ligands, […] (E2) (Sigma) or the pure anti-estrogen ICI-182,780 (Astra Zeneca, London, UK) dissolved in ethanol and diluted in medium to obtain the indicated concentrations. Cells were harvested 48 h post-transfection, and lysates were assayed for luciferase activity normalized to protein concentration as previously described (36).
ERRα Activates Transcription in HeLa Cells: Our finding that ERRα represses transcription from an ERE-controlled promoter was somewhat surprising since most reports in the literature conclude that ERR family members function as transcriptional activators of ERE-dependent transcription (17-31). […]

[3] = system: ERE-dependent transcription in MCF-7 cells; assay: as above; type: cell-based, human
Experimental: (§1) Transient Transfections and Luciferase Assays: To assess the role ERRα plays in regulating transcription of an ERE-containing promoter, MCF-7 or HeLa cells grown in 12-well tissue culture plates were co-transfected in parallel with 0.5 μg of pTK-luc versus p3xERE-TK-luc along with the indicated amounts of the empty cloning vector pcDNA3.1, the ERRα1 expression plasmid pcDNA3.1-hERRα1, or mutant variants thereof. Transfections were performed with the aid of the TransIT LT1 transfection reagent (PanVera, Madison, Wis.) as previously described (35). To examine the effects of ER ligands, cells were maintained in stripped medium for 48 h before transfection and the addition of 17β-estradiol (E2) (Sigma) or the pure anti-estrogen ICI-182,780 (Astra Zeneca, London, UK) dissolved in ethanol and diluted in medium to obtain the indicated concentrations. Cells were harvested 48 h post-transfection, and lysates were assayed for luciferase activity normalized to protein concentration as previously described (36).
ERRα Represses Transcription in MCF-7 Cells: Because ERRα can interfere with the binding of ERα to this ERE, might it affect estrogen-responsive transcription? To answer this question, we co-transfected ERα-positive mammary MCF-7 cells in parallel with p3xERE-TK-luc, a reporter plasmid containing three tandem copies of this ERE (FIG. 14A) or the ERE-negative control plasmid, pTK-luc, together with 0.12 or 0.25 μg of the ERRα1 expression plasmid, pcDNA3.1-hERRα1, or the empty parental expression plasmid, pcDNA3.1. After incubation for 48 h in medium containing whole FBS, the cells were harvested and assayed for luciferase activity. The presence of the EREs conferred an about 150-fold increase in transcriptional activity above the level observed in the cells transfected with the ERE-negative reporter plasmid (FIG. 14B). […] Thus, ERRα inhibits the estrogen-responsive activation of transcription from this ERE-containing promoter in this ER-positive MCF-7 cell line.
ERRα Modulates Estrogen-responsiveness in MCF-7 Cells: To directly examine the effect of ERRα on the response to estrogen, MCF-7 cells were cultured in medium containing estrogen-free charcoal-stripped FBS and cotransfected as described above but in the absence or presence of E2. […] Once again, overexpression of ERRα repressed ERE-dependent transcription approximately 3-fold while having little if any effect on transcription of the control reporter (FIG. 15A).

[4] = target: T1, ERRα (Homo sapiens, UniProt P11474); conditions: cited from earlier work
T1 sequence (P11474 1-423): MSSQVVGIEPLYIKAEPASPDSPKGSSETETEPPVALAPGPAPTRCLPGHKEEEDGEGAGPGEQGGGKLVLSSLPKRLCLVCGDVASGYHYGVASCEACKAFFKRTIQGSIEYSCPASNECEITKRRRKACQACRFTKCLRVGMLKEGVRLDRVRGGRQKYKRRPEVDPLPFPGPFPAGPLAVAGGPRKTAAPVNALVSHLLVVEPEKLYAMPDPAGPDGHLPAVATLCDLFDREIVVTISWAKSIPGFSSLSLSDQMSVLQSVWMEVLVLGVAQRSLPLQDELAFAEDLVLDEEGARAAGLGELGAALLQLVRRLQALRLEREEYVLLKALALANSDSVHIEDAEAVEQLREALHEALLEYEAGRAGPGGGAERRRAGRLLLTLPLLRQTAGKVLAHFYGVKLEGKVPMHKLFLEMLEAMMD

[5] = system: ERE-independent TK-luc transcription in MCF-7 cells; assay: pTK-luc ERE-negative control luciferase reporter, transient transfection; type: cell-based, human; conditions: whole FBS, 48 h
Experimental: as §1

[6] = 0.12 or 0.25 μg expression plasmid, whole FBS, 48 h

ERRγ, sequence (P62508 whole entry): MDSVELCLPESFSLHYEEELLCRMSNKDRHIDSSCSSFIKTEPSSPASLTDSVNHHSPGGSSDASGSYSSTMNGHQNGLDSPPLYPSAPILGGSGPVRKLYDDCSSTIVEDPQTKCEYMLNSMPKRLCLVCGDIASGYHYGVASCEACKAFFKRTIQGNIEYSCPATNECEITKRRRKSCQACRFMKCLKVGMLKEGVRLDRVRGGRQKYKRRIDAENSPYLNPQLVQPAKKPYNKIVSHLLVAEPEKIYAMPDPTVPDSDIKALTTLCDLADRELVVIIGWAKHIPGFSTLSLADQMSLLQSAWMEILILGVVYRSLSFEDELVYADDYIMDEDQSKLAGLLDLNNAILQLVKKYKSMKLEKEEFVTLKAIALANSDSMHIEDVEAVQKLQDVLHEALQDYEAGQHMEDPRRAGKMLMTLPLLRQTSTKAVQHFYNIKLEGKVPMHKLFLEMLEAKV

## 4-hydroxytamoxifen
[1]
  Effect on ERRγ (literature): selectively antagonizes ERRγ

## C[C@]12CC[C@@H]3c4ccc(O)cc4C[C@@H](CCCCCCCCC[S+]([O-])CCCC(F)(F)C(F)(F)F)[C@H]3[C@@H]1CC[C@@H]2O (some centres unmarked) [ICI-182,780, reference compound]
[2]
  Effect of anti-estrogen on ERE-dependent activity: completely insensitive
[3]; 1×10^−6 M, charcoal-stripped FBS plus 1×10^−8 M E2
  Effect of anti-estrogen on ERE-dependent activity: extremely sensitive
[3]; 1×10^−6 M, charcoal-stripped FBS plus 1×10^−10 M E2
  Effect of anti-estrogen on E2 induction of ERE reporter: completely eliminated
[3]; 1×10^−6 M, charcoal-stripped FBS, no exogenous E2
  Effect of anti-estrogen on ERE-dependent activity: largely ablated
[3]; 1×10^−6 M, medium with whole FBS
  Effect of anti-estrogen on ERE-dependent activity: extremely sensitive

## ClC1=C(Cl)C2(Cl)C3C(Cl)C(Cl)CC3C1(Cl)C2(Cl)Cl (centres unmarked) [chlordane]
[4]
  Effect on ERRα activity (literature): decrease the activity of ERRα

## CC1(C)C(C(Cl)Cl)C2(Cl)C(Cl)C(Cl)C1(Cl)C2(Cl)Cl (centres unmarked) [toxaphene]
[4]
  Effect on ERRα activity (literature): decrease the activity of ERRα

B1: ERRα: wild-type human ERRα1 overexpressed from plasmid pcDNA3.1-hERRα1 (protein)
chain: MSSQVVGIEPLYIKAEPASPDSPKGSSETETEPPVALAPGPAPTRCLPGHKEEEDGEGAGPGEQGGGKLVLSSLPKRLCLVCGDVASGYHYGVASCEACKAFFKRTIQGSIEYSCPASNECEITKRRRKACQACRFTKCLRVGMLKEGVRLDRVRGGRQKYKRRPEVDPLPFPGPFPAGPLAVAGGPRKTAAPVNALVSHLLVVEPEKLYAMPDPAGPDGHLPAVATLCDLFDREIVVTISWAKSIPGFSSLSLSDQMSVLQSVWMEVLVLGVAQRSLPLQDELAFAEDLVLDEEGARAAGLGELGAALLQLVRRLQALRLEREEYVLLKALALANSDSVHIEDAEAVEQLREALHEALLEYEAGRAGPGGGAERRRAGRLLLTLPLLRQTAGKVLAHFYGVKLEGKVPMHKLFLEMLEAMMD
[2]; 48 h
  Activation of transcription from p3xERE-TK-luc by overexpression: 2.5 fold
[3]; [6]
  Repression of ERE-dependent transcription by overexpression: 3-4 fold
[3]; charcoal-stripped FBS plus 1×10^−8 M E2
  Inhibition of E2-mediated activation of transcription by overexpression: no longer inhibited
[3]; charcoal-stripped FBS plus 1×10^−10 M E2
  Inhibition of E2-mediated activation of transcription by overexpression: 3-5 fold
[3]; charcoal-stripped FBS, no exogenous E2
  Repression of ERE-dependent transcription by overexpression: approximately 3 fold

B2: ERRα1413A/418A: ERRα1 variant with alanine in place of leucine at amino acids 413 and 418 (NR box) (protein)
chain: MSSQVVGIEPLYIKAEPASPDSPKGSSETETEPPVALAPGPAPTRCLPGHKEEEDGEGAGPGEQGGGKLVLSSLPKRLCLVCGDVASGYHYGVASCEACKAFFKRTIQGSIEYSCPASNECEITKRRRKACQACRFTKCLRVGMLKEGVRLDRVRGGRQKYKRRPEVDPLPFPGPFPAGPLAVAGGPRKTAAPVNALVSHLLVVEPEKLYAMPDPAGPDGHLPAVATLCDLFDREIVVTISWAKSIPGFSSLSLSDQMSVLQSVWMEVLVLGVAQRSLPLQDELAFAEDLVLDEEGARAAGLGELGAALLQLVRRLQALRLEREEYVLLKALALANSDSVHIEDAEAVEQLREALHEALLEYEAGRAGPGGGAERRRAGRLLLTLPLLRQTAGKVLAHFYGVKLEGKVPMHKAFLEMAEAMMD
[3]; [6]
  Repression of ERE-dependent transcription by overexpression: 5-8 fold
[3]; normalized to pTK-luc control
  Repressive effect on ERE-dependent transcription normalized to the control: 10-16 fold
[5]
  Up-regulation of ERE-independent TK-luc transcription by overexpression: approximately 2 fold

B3: ERRα1P-box: ERRα1 variant with E97G/A98S/A101V in the P-box, unable to bind DNA (protein)
chain: MSSQVVGIEPLYIKAEPASPDSPKGSSETETEPPVALAPGPAPTRCLPGHKEEEDGEGAGPGEQGGGKLVLSSLPKRLCLVCGDVASGYHYGVASCGSCKVFFKRTIQGSIEYSCPASNECEITKRRRKACQACRFTKCLRVGMLKEGVRLDRVRGGRQKYKRRPEVDPLPFPGPFPAGPLAVAGGPRKTAAPVNALVSHLLVVEPEKLYAMPDPAGPDGHLPAVATLCDLFDREIVVTISWAKSIPGFSSLSLSDQMSVLQSVWMEVLVLGVAQRSLPLQDELAFAEDLVLDEEGARAAGLGELGAALLQLVRRLQALRLEREEYVLLKALALANSDSVHIEDAEAVEQLREALHEALLEYEAGRAGPGGGAERRRAGRLLLTLPLLRQTAGKVLAHFYGVKLEGKVPMHKLFLEMLEAMMD
[3]; whole FBS, 48 h
  Induction of ERE-dependent transcription by overexpression: 2-3 fold
